Columns and labels:
[1] = target: HTR2A N107A^2.37 mutant (human) (UniProt P28223)
[2] = target: HTR2A R185A^ICL2 mutant (human) (UniProt P28223)

Gαq wild-type (GαrLuc8 of the BRET2 assay) (from UniProt P50148 1-359) (natural protein)
BRET2 assay, decrease of the efficacy of 25CN-NBOH [1]: 50%
BRET2 assay, decrease of the efficacy of 25CN-NBOH [2]: 50%
